Paper PMC10853767

Target: NLS-GS-HIStag-GS-dCas12e-ABI (ABI domain fused directly to dCas12e)

HA-PYL1-linker-VP64-NLS (PYL1 fused to VP64) (domain or fragment)
yEGFP activation efficiency of the ABA-sensing YES gate with ABI fused directly to dCas12e and an unchanged sgRNA, circuit 3x; the pair is bridged by the small molecule ABA: 2.79 fold
